Experimental findings from paper PMC4806292, “Structural insights and in vitro reconstitution of membrane targeting and activation of human PI4KB by the ACBD3 protein” (Scientific Reports, 2016) are described below.

First the molecules themselves.
B2: PI4KB, untagged (residues 423-522 removed) (enzyme, human, UniProt Q9UBF8 1-816, looked up)
chain: MGDTVVEPAPLKPTSEPTSGPPGNNGGSLLSVITEGVGELSVIDPEVAQKACQEVLEKVKLLHGGVAVSSRGTPLELVNGDGVDSEIRCLDDPPAQIREEEDEMGAAVASGTAKGARRRRQNNSAKQSWLLRLFESKLFDISMAISYLYNSKEPGVQAYIGNRLFCFRNEDVDFYLPQLLNMYIHMDEDVGDAIKPYIVHRCRQSINFSLQCALLLGAYSSDMHISTQRHSRGTKLRKLILSDELKPAHRKRELPSLSPAPDTGLSPSKRTHQRSKSDATASISLSSNLKRTASNPKVENEDEELSSSTESIDNSFSSPVRLAPEREFIKSLMAIGKRLATLPTKEQKTQRLISELSLLNHKLPARVWLPTAGFDHHVVRVPHTQAVVLNSKDKAPYLIYVEVLECENFDTTSVPARIPENRRDPEDPSAVALKEPWQEKVRRIREGSPYGHLPNWRLLSVIVKCGDDLRQELLAFQVLKQLQSIWEQERVPLWIKPYKILVISADSGMIEPVVNAVSIHQVKKQSQLSLLDYFLQEHGSYTTEAFLSAQRNFVQSCAGYCLVCYLLQVKDRHNGNILLDAEGHIIHIDFGFILSSSPRNLGFETSAFKLTTEFVDVMGGLDGDMFNYYKMLMLQGLIAARKHMDKVVQIVEIMQQGSQLPCFHGSSTIRNLKERFHMSMTEEQLQLLVEQMVDGSMRSITTKLYDGFQYLTNGIM
notes: Phosphatidylinositol 4-kinase beta (PI4KB), human, UniProtKB entry Q9UBF8 isoform 1, with the intrinsically disordered region 423-522 removed; Called untagged in the pull-downs; the AUC mass of about 80 kDa fits the deleted form; also called PI4K IIIβ; untagged full-length PI4KB; source: E. coli BL21 Star, purified (Ni-NTA, TEV, SEC); not shown: His6, N-terminal, cleaved; GB1, N-terminal, cleaved
B3: Acyl-coenzyme A binding domain containing protein 3 (ACBD3), full length, untagged (natural protein, human, UniProt Q9H3P7 1-528, looked up)
chain: MAAVLNAERLEVSVDGLTLSPDPEERPGAEGAPLLPPPLPPPSPPGSGRGPGASGEQPEPGEAAAGGAAEEARRLEQRWGFGLEELYGLALRFFKEKDGKAFHPTYEEKLKLVALHKQVLMGPYNPDTCPEVGFFDVLGNDRRREWAALGNMSKEDAMVEFVKLLNRCCHLFSTYVASHKIEKEEQEKKRKEEEERRRREEEERERLQKEEEKRRREEEERLRREEEERRRIEEERLRLEQQKQQIMAALNSQTAVQFQQYAAQQYPGNYEQQQILIRQLQEQHYQQYMQQLYQVQLAQQQAALQKQQEVVVAGSSLPTSSKVNATVPSNMMSVNGQAKTHTDSSEKELEPEAAEEALENGPKESLPVIAAPSMWTRPQIKDFKEKIQQDADSVITVGRGEVVTVRVPTHEEGSYLFWEFATDNYDIGFGVYFEWTDSPNTAVSVHVSESSDDDEEEEENIGCEEKAKKNANKPLLDEIVPVYRRDCHEEVYAGSHQYPGRGVYLLKFDNSYSLWRSKSVYYRVYYTR
notes: ACBD3, human, UniProtKB entry Q9H3P7, full length; Called untagged in the pull-downs; also called GCP60; PAP7; source: E. coli BL21 Star, purified (Ni-NTA, TEV, SEC); not shown: His6, N-terminal, cleaved; GB1, N-terminal, cleaved

Holding throughout (conditions): both partners purified
Experiment [1] has as its target B2. Nature of the experiment: pull-down; Ni-NTA sepharose beads, one partner with N-terminal His6GB1 tag immobilised, both partners 1 μM in 200 μL 30 mM Tris pH 8, 200 mM NaCl, 10 mM imidazole, 1 mM TCEP; 30 min at 4 °C; SDS gels stained with Coomassie Blue.
In experiment [2] the target is B3. Nature of the experiment: AUC; sedimentation velocity, full-length proteins alone and as complex, 5 μM (both proteins); 10 mM Tris pH 8, 200 mM NaCl, 3 mM β-mercaptoethanol, 20 °C, 48000 rpm; c(s) model.
Experiment [3] deals with B2. Kind of experiment: SPR; legend: PI4KB binding to immobilized ACBD3; methods: PI4KB chip-immobilized, ACBD3 injected in a series of concentrations for 3 min, dissociation 5 min; single-exponential model. For orientation: In SPR one partner is held on a chip, and binding of the other changes the refractive index at the surface.
For experiment [4], the target named is T1, His6GB1-tagged PI4KB V47A mutant (human, UniProt Q9UBF8 1-816, V47A | residues 423–522 removed).
T1 construct: PI4KB, human, UniProtKB Q9UBF8 isoform 1, residues 423-522 removed, point mutant; source: E. coli BL21 Star, purified (Ni-NTA, SEC); not shown: His6, N-terminal, kept; GB1, N-terminal, kept
Nature of the experiment: pull-down; Ni-NTA sepharose beads, one partner with N-terminal His6GB1 tag immobilised, both partners 1 μM in 200 μL 30 mM Tris pH 8, 200 mM NaCl, 10 mM imidazole, 1 mM TCEP; 30 min at 4 °C; SDS gels stained with Coomassie Blue.

In experiment [5] the target is T2, His6GB1-tagged PI4KB V42A mutant (human, UniProt Q9UBF8 1-816, V42A | residues 423–522 removed).
T2 construct: PI4KB, human, UniProtKB Q9UBF8 isoform 1, residues 423-522 removed, point mutant; source: E. coli BL21 Star, purified (Ni-NTA, SEC); not shown: His6, N-terminal, kept; GB1, N-terminal, kept
The description is as above.

In experiment [6] the target is B3. The experiment is described as above.
In experiment [7] the target is T3, N-terminal His6GB1-tagged PI4KB (residues 423-522 removed) (human, UniProt Q9UBF8 1-816, residues 423–522 removed).
T3 construct: Phosphatidylinositol 4-kinase beta (PI4KB), human, UniProtKB entry Q9UBF8 isoform 1, with the intrinsically disordered region 423-522 removed; also called PI4K IIIβ; His6-tagged wild type PI4KB; source: E. coli BL21 Star, purified (Ni-NTA, SEC); not shown: His6, N-terminal, kept; GB1, N-terminal, kept
The description is as above.

Usually stoichiometry N stands for a count of units in the complex or per binding partner. A word on the Kd: it is the constant that tells how readily two partners part at equilibrium. A high value points to weaker binding.

B1: N-terminal His6GB1-tagged ACBD3 Q domain (residues 241-308) (domain or fragment, human, UniProt Q9H3P7 241-308, looked up)
chain: QQKQQIMAALNSQTAVQFQQYAAQQYPGNYEQQQILIRQLQEQHYQQYMQQLYQVQLAQQQAALQKQQ
notes: ACBD3 Q domain (glutamine rich region), human, UniProtKB Q9H3P7, residues 241-308; also called Q domain of ACBD3; source: E. coli BL21 Star, purified (Ni-NTA, SEC); not shown: His6, N-terminal, kept; GB1, N-terminal, kept
Turning to B1, the binding result in experiment [1] was “binds”.
Turning to B2, the “stoichiometry N” value in experiment [2] turned out to be 1.
B3: the Kd in experiment [3] amounted to 320 nM. The binding result in experiment [4] and in experiment [5] was “binds” each time.

B4: N-terminal His6GB1-tagged PI4KB N-terminal region (residues 1-68) (domain or fragment, human, UniProt Q9UBF8 1-68, looked up)
chain: MGDTVVEPAPLKPTSEPTSGPPGNNGGSLLSVITEGVGELSVIDPEVAQKACQEVLEKVKLLHGGVAV
notes: PI4KB N-terminal region preceding the helical domain, human, UniProtKB Q9UBF8 isoform 1, residues 1-68; also called N-terminal region of PI4KB; source: E. coli BL21 Star, purified (Ni-NTA, SEC); not shown: His6, N-terminal, kept; GB1, N-terminal, kept
Take B4: the binding result in experiment [6] is reported as “binds”.

B5: ACBD3 Y266A mutant, untagged (natural protein, human, UniProt Q9H3P7 1-528, looked up)
chain: MAAVLNAERLEVSVDGLTLSPDPEERPGAEGAPLLPPPLPPPSPPGSGRGPGASGEQPEPGEAAAGGAAEEARRLEQRWGFGLEELYGLALRFFKEKDGKAFHPTYEEKLKLVALHKQVLMGPYNPDTCPEVGFFDVLGNDRRREWAALGNMSKEDAMVEFVKLLNRCCHLFSTYVASHKIEKEEQEKKRKEEEERRRREEEERERLQKEEEKRRREEEERLRREEEERRRIEEERLRLEQQKQQIMAALNSQTAVQFQQYAAQQAPGNYEQQQILIRQLQEQHYQQYMQQLYQVQLAQQQAALQKQQEVVVAGSSLPTSSKVNATVPSNMMSVNGQAKTHTDSSEKELEPEAAEEALENGPKESLPVIAAPSMWTRPQIKDFKEKIQQDADSVITVGRGEVVTVRVPTHEEGSYLFWEFATDNYDIGFGVYFEWTDSPNTAVSVHVSESSDDDEEEEENIGCEEKAKKNANKPLLDEIVPVYRRDCHEEVYAGSHQYPGRGVYLLKFDNSYSLWRSKSVYYRVYYTR
notes: ACBD3, human, UniProtKB Q9H3P7, point mutant; source: E. coli BL21 Star, purified (Ni-NTA, TEV, SEC); not shown: His6, N-terminal, cleaved; GB1, N-terminal, cleaved
B5: the binding result in experiment [7] was “binds”.
